Experiments:
003m-P215S (RSV) [1] = experiment: flow cytometry, Expi293F cells, mRNA-LNP (RL151)
003m-P215S-1×GCN4t (RSV) [2] = experiment: flow cytometry, Expi293F cells, mRNA-LNP (RL151)
003m-P215S-S-3N [3] = experiment: flow cytometry, Expi293F cells, mRNA-LNP (RL151)
003m-P215S-ΔF111 (RSV) [4] = experiment: flow cytometry, Expi293F cells, mRNA-LNP (RL151)
[5] = biological target: 003m-P215S-ΔF111-1×GCN4t (RSV); experiment: flow cytometry, Expi293F cells, mRNA-LNP (RL151)
003m-P215S-ΔF111-S-3N [6] = experiment: flow cytometry, Expi293F cells, mRNA-LNP (RL151)
003m-P215S (RSV) [7] = experiment: flow cytometry, Expi293F cells, Lipofectamine 2000-mRNA
003m-P215S-1×GCN4t (RSV) [8] = experiment: as above
003m-P215S-S-3N [9] = experiment: as above
003m-P215S-ΔF111 (RSV) [10] = experiment: as above
[11] = biological target: 003m-P215S-ΔF111-1×GCN4t (RSV); experiment: as above
003m-P215S-ΔF111-S-3N [12] = experiment: as above
003m-P215S-1×GCN4t (RSV) [13] = experiment: as above; remark: listed apart in the source
[14] = biological target: 003m-P215S-DELL-1×GCN4t (RSV); experiment: as above
[15] = biological target: 003m-P215S-KST-1×GCN4t (RSV); experiment: as above
[16] = biological target: 003m-P215S-NAG-1×GCN4t (RSV); experiment: as above
003m-P215S-1×GCN4t (RSV) [17] = experiment: as above; remark: listed apart in the source
[18] = biological target: 007m-Cys-P215S-1×GCN4t (RSV); experiment: as above
[19] = biological target: 008m-Cys-P215S-1×GCN4t (RSV); experiment: as above
[20] = biological target: 009m-Cys-P215S-1×GCN4t (RSV); experiment: as above
[21] = biological target: 010m-Cys-P215S-1×GCN4t (RSV); experiment: as above
011m-Cys-P215S-1×GCN4t = experiment: as above
012m-Cys-P215S-1×GCN4t = experiment: as above
013m-Cys-P215S-1×GCN4t = experiment: as above
RSV B-003m-P215S (RSV B) = experiment: flow cytometry, Expi293F cells, Lipofectamine 2000-mRNA; mRNA RQ3
[22] = biological target: RSV B-003m-P215S-1×GCN4t (RSV B); experiment: as above
[23] = biological target: RSV B-003m-P215S-1×GCN4t-C102A-C362S (RSV B); experiment: as above
[24] = biological target: RSV B-003m-P215S-1×GCN4t-C155S-C290S (RSV B); experiment: as above
[25] = biological target: RSV B-003m-P215S-1×GCN4t-C486D-C489D (RSV B); experiment: as above
[26] = biological target: RSV B-003m-P215S-1×GCN4t-D92E (RSV B); experiment: as above
[27] = biological target: RSV B-003m-P215S-1×GCN4t-F190S (RSV B); experiment: as above
[28] = biological target: RSV B-003m-P215S-1×GCN4t-G46S (RSV B); experiment: as above
[29] = biological target: RSV B-003m-P215S-1×GCN4t-ori_linker (RSV B); experiment: as above
003m-DS (RSV) = experiment: flow cytometry, Expi293F cells transfected with the antigen's mRNA
007m-Cys-ΔCys (RSV) = experiment: as above
007m-DS (RSV) = experiment: as above
009m-Cys (RSV) = experiment: as above
009m-DS (RSV) = experiment: as above
003m-P215S-1×GCN4t (RSV) [30] = experiment: flow cytometry, Expi293F cells, Lipofectamine 2000-mRNA; row 003m-P215S-1×GCN4t-opti3
003m-P215S-1×GCN4t (RSV) [31] = experiment: flow cytometry, Expi293F cells, Lipofectamine 2000-mRNA; row 003m-P215S-1×GCN4t (ORIG)

| Substance | MFI (003m-P215S (RSV) [1]) | MFI (003m-P215S-1×GCN4t (RSV) [2]) | MFI (003m-P215S-S-3N [3]) | MFI (003m-P215S-ΔF111 (RSV) [4]) | MFI [5] | MFI (003m-P215S-ΔF111-S-3N [6]) | MFI (003m-P215S (RSV) [7]) | MFI (003m-P215S-1×GCN4t (RSV) [8]) | MFI (003m-P215S-S-3N [9]) | MFI (003m-P215S-ΔF111 (RSV) [10]) | MFI [11] | MFI (003m-P215S-ΔF111-S-3N [12]) | MFI (003m-P215S-1×GCN4t (RSV) [13]) | MFI [14] | MFI [15] | MFI [16] | MFI (003m-P215S-1×GCN4t (RSV) [17]) | MFI [18] | MFI [19] | MFI [20] | also measured |
| --- | --- | --- | --- | --- | --- | --- | --- | --- | --- | --- | --- | --- | --- | --- | --- | --- | --- | --- | --- | --- | --- |
| D25-AF488 (antibody) | 16400 | 3880 | 6730 | 37300 | 682 | 44800 | 486000 | 8630 | 148000 | 1.02e+06 | 14700 | 704000 | 32800 | 35700 | 31600 | 33900 | 12200 | 12800 | 15700 | 11500 | MFI [21]: 13400; MFI (011m-Cys-P215S-1×GCN4t): 10300; MFI (012m-Cys-P215S-1×GCN4t): 15800; MFI (013m-Cys-P215S-1×GCN4t): 14600; MFI (RSV B-003m-P215S (RSV B)): 265000; MFI [22]: 6190; MFI [23]: 16000; MFI [24]: 93500; MFI [25]: 7160; MFI [26]: 2110; MFI [27]: 13100; MFI [28]: 4220; MFI [29]: 515; MFI (003m-DS (RSV)): 37100; MFI (007m-Cys-ΔCys (RSV)): 369000; MFI (007m-DS (RSV)): 159000; MFI (009m-Cys (RSV)): 199000; MFI (009m-DS (RSV)): 154000; MFI (003m-P215S-1×GCN4t (RSV) [30]): 4990; MFI (003m-P215S-1×GCN4t (RSV) [31]): 8390 |
| AM14-AF488 (antibody) | 20000 | 4180 | 5920 | 45200 | 821 | 49100 | 759000 | 5650 | 127000 | 1.52e+06 | 12500 | 1.08e+06 | 21600 | 31400 | 33800 | 45700 | 6700 | 7680 | 9780 | 6450 | MFI [21]: 8650; MFI (011m-Cys-P215S-1×GCN4t): 7710; MFI (012m-Cys-P215S-1×GCN4t): 9390; MFI (013m-Cys-P215S-1×GCN4t): 7930; MFI (RSV B-003m-P215S (RSV B)): 353000; MFI [22]: 5060; MFI [23]: 4430; MFI [24]: 47600; MFI [25]: 7590; MFI [26]: 814; MFI [27]: 11200; MFI [28]: 4100; MFI [29]: 182; MFI (003m-DS (RSV)): 10100; MFI (007m-Cys-ΔCys (RSV)): 430000; MFI (007m-DS (RSV)): 144000; MFI (009m-Cys (RSV)): 247000; MFI (009m-DS (RSV)): 147000; MFI (003m-P215S-1×GCN4t (RSV) [30]): 3430; MFI (003m-P215S-1×GCN4t (RSV) [31]): 4150 |

— EP4814000A1
